How the values were obtained:
Clathrin heavy chain 1 = biological target: T1, Clathrin heavy chain 1 (UniProt Q00610 2-1675); assay: immunoprecipitation from MDA-MB-231 1% Triton X-100 lysate, gel band identified by LC-MS/MS
T1 construct: Endogenous protein, immunoprecipitated from cell lysate and stained in permeabilized MCF7 cells; also called CLTC
Method: FIGS. 3 A and B show immunoprecipitation of respective target antigens by HCAb1 and HCAb2. 20 μg of HCAb1 and HCAb2 were used to immunoprecipitate the target antigens from 1% Triton X-100 (A) or 1% Triton X-100+0.1% SDS (B) MDA-MB-231 lysates. The immunoprecipitated proteins were run on a reducing SDS-PAGE gel and the proteins in the gel were stained with SYPRO® Ruby stain. * indicates the specific band for HCAb1 (A) and HCAb2 (B).
In order to determine the antigens recognized by the HCAbs, we performed immunoprecipitation of the antigens followed by protein identification using mass spectrometry. We chose MDA-MB-231 cell lysates since the respective target antigens for both HCAb1 (FIG. 1L) and HCAb2 (FIGS. 1C, 1I and 1O) were abundant in MDA-MB-231 cells. The immunoprecipitated proteins were run on a reducing SDS-PAGE gel and visualized using SYPRO® Ruby stain. […] Furthermore, these buffer conditions were unfavorable for HCAb1 to immunoprecipitate the band seen previously (FIG. 3A) in the buffer lacking SDS.
The specific gel bands (*) observed in FIGS. 3A and 3B were excised and the tryptic peptides were analyzed by mass spectrometry. Peptides identified from the analysis were used to search the SwissProt database to obtain the list of target proteins. Tables 1 and 2 list the top five proteins identified from the HCAb1 and HCAb2 immunoprecipitated bands, respectively. […]

Recombinant human HSP90β = biological target: T2, Recombinant human HSP90β (human, UniProt P08238 1-724, limits assumed); assay: immunoprecipitation of recombinant HSP90β, immunoblot with commercial HSP90 antibody
T2 construct: Bought protein; also called heat shock protein HSP 90-beta; HSP90AB1
T2 sequence (P08238 whole entry): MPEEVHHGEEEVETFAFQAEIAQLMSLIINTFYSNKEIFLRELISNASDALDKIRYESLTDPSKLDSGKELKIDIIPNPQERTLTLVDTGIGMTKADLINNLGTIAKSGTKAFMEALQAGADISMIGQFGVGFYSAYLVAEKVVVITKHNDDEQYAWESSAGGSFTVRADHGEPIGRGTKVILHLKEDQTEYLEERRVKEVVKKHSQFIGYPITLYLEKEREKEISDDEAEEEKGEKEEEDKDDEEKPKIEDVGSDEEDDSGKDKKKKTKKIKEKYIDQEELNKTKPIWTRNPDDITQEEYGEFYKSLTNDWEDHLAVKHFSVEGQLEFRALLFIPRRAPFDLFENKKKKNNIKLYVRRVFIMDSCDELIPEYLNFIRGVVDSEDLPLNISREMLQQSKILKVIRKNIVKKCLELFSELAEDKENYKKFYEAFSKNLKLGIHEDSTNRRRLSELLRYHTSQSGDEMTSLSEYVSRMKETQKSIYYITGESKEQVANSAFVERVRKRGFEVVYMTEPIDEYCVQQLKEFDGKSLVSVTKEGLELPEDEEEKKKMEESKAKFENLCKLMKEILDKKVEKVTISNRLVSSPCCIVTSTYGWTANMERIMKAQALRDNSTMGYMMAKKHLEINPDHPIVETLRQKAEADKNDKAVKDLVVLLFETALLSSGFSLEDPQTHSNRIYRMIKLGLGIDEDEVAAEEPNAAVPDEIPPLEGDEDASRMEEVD
Method: FIGS. 4 A and B show a validation of the target antigens of HCAb1 and HCAb2. […] Immunoprecipitation of HSP90 was performed from cytosolic and plasma membrane (PM) fractions using HCAb2. The immunoprecipitated HSP90 was detected using a commercial HSP90 antibody. […] HCAb1 and HCAb2 (5 μg each) were used to immunoprecipitate recombinant HSP90β (1 μg) resuspended in either 1% Triton X-100+0.1% SDS or 1% Triton X-100+1% SDS buffers. The immunoprecipitated HSP90β protein was detected using a commercial HSP90 antibody. Equal amounts of HCAb1 and HCAb2 were pulled down as detected by anti-mouse IgG antibody.
The list of proteins identified for HCAb2 contained both HSP90α and HSP90β isoforms with HSP90β being the highest scoring protein (Table 2). […] Of the 45 peptides, 3 peptides were unique to HSP90α, while 15 peptides were unique to HSP90β and the remaining 27 peptides were common to both the isoforms. […] To test this, we used recombinant human HSP90β (highest scoring protein from Table 2) to determine the specificity of HCAb2. HCAb1 and HCAb2 were examined for their ability to immunoprecipitate HSP90β and the presence of HSP90β detected using the commercial HSP90 antibody. […] This interaction was abolished when the SDS concentration was elevated from 0.1% to 1%. […]

[1] = biological target: T3, HSP90 (endogenous, from MDA-MB-231 cells and MDA-MB-231 xenograft tumor lysates) (human, UniProt P08238 2-724); assay: immunoprecipitation from MDA-MB-231 xenograft tumor lysates, immunoblot with commercial HSP90 antibody
T3 construct: The isoform is not resolved in these experiments; HSP90α (P07900) may also be present; also called cell surface HSP90
T3 sequence (P08238 2-724 limits assumed): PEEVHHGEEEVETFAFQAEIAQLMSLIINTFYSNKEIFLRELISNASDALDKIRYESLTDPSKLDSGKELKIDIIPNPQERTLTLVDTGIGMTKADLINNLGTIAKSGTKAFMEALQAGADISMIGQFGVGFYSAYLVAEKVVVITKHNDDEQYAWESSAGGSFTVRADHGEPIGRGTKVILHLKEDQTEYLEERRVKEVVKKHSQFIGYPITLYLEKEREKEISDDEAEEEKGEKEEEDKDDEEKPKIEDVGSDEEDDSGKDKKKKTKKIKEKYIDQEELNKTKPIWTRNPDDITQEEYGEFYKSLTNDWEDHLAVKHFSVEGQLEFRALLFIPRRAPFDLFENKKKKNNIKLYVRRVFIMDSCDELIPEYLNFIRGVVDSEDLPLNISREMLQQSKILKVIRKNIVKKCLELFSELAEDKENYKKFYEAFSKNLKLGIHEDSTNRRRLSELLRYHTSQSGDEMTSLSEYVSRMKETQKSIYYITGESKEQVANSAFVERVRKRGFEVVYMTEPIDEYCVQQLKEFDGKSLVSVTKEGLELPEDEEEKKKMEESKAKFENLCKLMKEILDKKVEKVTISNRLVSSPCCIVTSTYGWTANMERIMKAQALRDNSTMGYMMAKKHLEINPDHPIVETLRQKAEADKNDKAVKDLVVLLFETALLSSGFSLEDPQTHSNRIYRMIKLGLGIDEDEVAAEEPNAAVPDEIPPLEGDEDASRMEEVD
Method: RIPA lysates of xenograft tumor pieces were used for immunoprecipitation with 15 μg of HCAb1 and HCAb2. Immunoprecipitated HSP90β protein was detected on an immunoblot using commercial HSP90 antibody. […] Equal amounts of HCAb1 and HCAb2 were pulled down as detected by anti-mouse IgG antibody.
Xenograft tumor pieces were placed in 500 μL of 1% Triton™ X-100+0.1% SDS/PBS lysis buffer supplemented with 0.2 mM sodium orthovanadate and fresh protease inhibitor cocktail (1:100) and homogenized using polytron homogenizer for 30 sec −1 min on ice. Homogenates were spun at 14,000 rpm for 20 min at 4° C. and supernatants were used for immunoprecipitation.
We also wanted to determine if HCAb2 can bind to HSP90 from the xenograft tumor lysates. Xenograft tumor pieces were homogenized and incubated with exogenous HCAb1 and HCAb2. Immunoprecipitated proteins were detected using the commercial HSP90 antibody. […] In summary, we observed that HCAb2 bound preferentially to a small population of MDA-MB-231 xenograft tumor cells in comparison to the normal mouse tissues and also pulled down HSP90 from xenograft tumor lysates.

T1 sequence (Q00610 2-1675 limits assumed): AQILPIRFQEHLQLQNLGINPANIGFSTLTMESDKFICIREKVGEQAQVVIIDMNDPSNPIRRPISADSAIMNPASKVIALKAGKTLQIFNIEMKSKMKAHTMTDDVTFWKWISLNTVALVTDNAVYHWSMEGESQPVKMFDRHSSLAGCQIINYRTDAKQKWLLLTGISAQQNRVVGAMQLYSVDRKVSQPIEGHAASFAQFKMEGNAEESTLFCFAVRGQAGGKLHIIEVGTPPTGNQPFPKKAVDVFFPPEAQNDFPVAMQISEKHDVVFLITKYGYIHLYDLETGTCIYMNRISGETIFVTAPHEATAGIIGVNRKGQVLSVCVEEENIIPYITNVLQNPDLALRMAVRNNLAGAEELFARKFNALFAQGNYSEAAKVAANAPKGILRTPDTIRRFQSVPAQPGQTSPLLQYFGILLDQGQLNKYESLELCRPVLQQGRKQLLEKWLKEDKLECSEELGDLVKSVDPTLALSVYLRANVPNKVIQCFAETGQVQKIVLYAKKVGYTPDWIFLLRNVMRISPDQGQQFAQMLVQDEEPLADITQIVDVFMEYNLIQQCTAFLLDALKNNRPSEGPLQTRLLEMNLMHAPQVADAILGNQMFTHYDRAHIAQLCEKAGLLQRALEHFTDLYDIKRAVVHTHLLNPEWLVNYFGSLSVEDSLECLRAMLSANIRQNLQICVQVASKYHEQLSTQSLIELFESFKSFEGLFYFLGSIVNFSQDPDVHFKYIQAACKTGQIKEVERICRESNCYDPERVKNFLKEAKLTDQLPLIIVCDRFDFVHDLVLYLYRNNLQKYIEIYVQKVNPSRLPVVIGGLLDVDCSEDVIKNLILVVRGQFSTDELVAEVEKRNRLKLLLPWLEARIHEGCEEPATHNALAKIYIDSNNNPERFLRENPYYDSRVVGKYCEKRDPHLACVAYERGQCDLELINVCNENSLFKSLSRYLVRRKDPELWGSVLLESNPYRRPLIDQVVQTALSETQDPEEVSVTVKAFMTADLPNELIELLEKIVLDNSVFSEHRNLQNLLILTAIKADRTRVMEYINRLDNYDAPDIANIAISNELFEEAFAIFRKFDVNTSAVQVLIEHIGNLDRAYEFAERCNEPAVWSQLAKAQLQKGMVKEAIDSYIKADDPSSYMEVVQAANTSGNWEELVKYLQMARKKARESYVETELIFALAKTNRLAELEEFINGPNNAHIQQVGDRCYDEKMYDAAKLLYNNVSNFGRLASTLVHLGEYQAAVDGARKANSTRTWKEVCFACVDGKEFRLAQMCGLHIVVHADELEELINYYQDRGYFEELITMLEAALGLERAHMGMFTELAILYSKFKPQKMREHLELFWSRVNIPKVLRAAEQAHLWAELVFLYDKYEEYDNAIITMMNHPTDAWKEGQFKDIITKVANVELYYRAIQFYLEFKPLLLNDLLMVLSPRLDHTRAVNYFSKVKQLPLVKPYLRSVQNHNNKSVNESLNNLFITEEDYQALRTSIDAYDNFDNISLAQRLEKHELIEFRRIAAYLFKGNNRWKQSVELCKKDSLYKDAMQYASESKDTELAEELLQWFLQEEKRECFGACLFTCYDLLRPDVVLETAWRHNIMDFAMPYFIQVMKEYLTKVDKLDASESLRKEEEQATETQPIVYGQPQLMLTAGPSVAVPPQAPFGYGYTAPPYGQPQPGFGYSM

B1: HCAb1 (Fc fusion)
heavy: QVQLVQSGGGLVQPGGSLRLSCAASGFTFSSYAMSWVRQAPGKGLEWVSAISGSGGSTYYADSVKGRFTISRDNSKNTLYLQMNSLRAEDTAVYYCARQEGQWLVQIDYWGQGTLVTVSS
notes: Human VH fused to the mouse Fc domain, no light chain, bivalent; It served as the control antibody for HCAb2; also called heavy chain antibody 1; not shown: mouse Fc domain from vector pCMV6-AC-FC-S (OriGene), with any junction residues encoded by the PCR primers
B1: binds (Clathrin heavy chain 1); no binding (tested: 1 µg HSP90β) (Recombinant human HSP90β); no binding (tested: 15 µg of HCAb1) [1].

Source: patent US20180002412A1 (UNIVERSITY OF CONNECTICUT, published 2018)
